# Assay: soluble on expression in E. coli; label from the status in PepcDB or PDB records
row,Sequence,soluble on expression in E. coli
1,MNGASRGDVQRPTPVQAPAKRPIPPTVFRFEKASKIGTSLDTTPKELPIRRPVPLPGPRFVKDVNPSPPATSSPNVQTQCHQPPVVRSQTHQASVSQTTPTQTTPSQYTPASVSTARAPQFHRSSHVTPSQQQRIEQAFGPAPVSQSQPQNGSYIQYNEPSTSVASTTTSFYSPNESEPVFTHAISFKPNEPENGQKAREQLELLDSGKINEINQSKVPTTIELPPNCKLFQYSWVLDGIPRTLLVPMPMDATEEDVKAMLPKTLEMDSNLFNNARPRDELPVLSFPNGTVPNVEMIGPKVQQPMLVNPKQFNRIMRRREMRQQLEASGRLPLARQKYLHESRHLHALKRKRGLDGRFDNTKTAESSSMVSSTTSPRKLKRRNRLPGEETSDSSSIVLPSPVEIQPKGGIVNSSMPSTSTGYINNGMDHQTDYIEHQQPMSTYDQYHDHVQYIAPDGNVNYHNNHDNGVDLTGSDGQSFTNL,soluble
2,MKTFPLQSLTIIEAQQKQFALVDSICRHFPGSEFLTGGDLGLTPGLNQPRVTQRVEQVLADAFHAQAAALVQGAGTGAIRAGLAALLKPGQRLLVHDAPVYPTTRVIIEQMGLTLITVDFNDLSALKQVVDEQQPDAALVQHTRQQPQDSYVLADVLATLRAAGVPALTDDNYAVMKVARIGCECGANVSTFSCFKLFGPEGVGAVVGDADVINRIRATLYSGGSQIQGAQALEVLRGLVFAPVMHAVQAGVSERLLALLNGGAVPEVKSAVIANAQSKVLIVEFHQPIAARVLEEAQKRGALPYPVGAESKYEIPPLFYRLSGTFRQANPQSEHCAIRINPNRSGEETVLRILRESIASI,soluble
3,MTGVLVGCSVEKTNTNKVNIDKVEIVAPNVQGAGWDLTARAMQKTLTEEKIFTKPITVTNKVGGSGDVGWKYTKQKGGHVLAINSSLLITNNLLGHSKLTYKDFTPLATLASDWEVVVVSKDSNIENANQLMEQLKQNKKNFKIGVAPGLGNDDHLSFVQVSKAFGINPAELQFFVYENKEKIISALTNKQINAATMTLSEAEKQYKAGKIKILAVSAPKRIDRLPQIPTWKEQGIDVIFQHWKGIMGPKDMTEEEVAYWDDVIKRMVESDSWKGILRERGWESFYKGSGESSGWYGGMIKTEKVDEEGSYRMRFLGLFIGNLIYS,not soluble
4,MIWIAVDRVGKKFINCSFGSRGTETGQLLWEKLEKKEIGEVMTDHWRAYAAFLPETIHTQSKAETYTVEGYNSILRHFLARLRRKTKCYTKSLEMLKYSVLLLMKYRNRELTIFHASSVKLEHHHHHH,not soluble
5,MLLNLFNEMRAAKVPVSLRELLDLINALKQRVIFADIDEFYFLARTILVKDERHFDKFDRAFGAYFNGLEKLDDHLQALIPEDWLRKEFERSLSDEERAQIQSLGGLDKLIDEFKKRLEEQKERHAGGNKWIGTGGTSPFGSGGYNPEGIRVGDAGERKGKAVKVWDQREYKNLDDQVDLGTRNIKVALRRLRKFARQGAADELDIDGTIDHTARDAGLLNIQMRPERRNTIKLLLLFDIGGSMDSHVKVCEELFSACKTEFKHMEYFYFHNFIYETVWKNNLRRGSERTATQDLLHKYGADYKVIFIGDASMAPYEITQPGGSVEHWNEEAGYVWMQRFMAKFKKVIWINPYPKDAWDYTTSTHIVRDLIEQHMYPLTLQGLEDGMRYLA,not soluble
6,RFEHSLGVYHLADRALAHLDISGTRADTVRAAALLHDIGHGPYGHQTEGIIQRRLDRHHDDVAHLVSNGEPGAVLAAHGLDPDRVAALVAGHGKLGQLVAGELDVDRMDYLVRD,soluble
7,GPGSMHSEQSICEFIHMQRELRRCYATMENYEVVIAQLRDDCALSRAQLCRFQQEHAQRGKDVEAQVRAELTEQTNARLSALRQSEASDALCLKTSAGPDRNTTDAAEEYRRDTCQATLDELRRALQEEQSAHAECLARLTEALAAKARWKSRAVELLKWRKQVCGQMYMSSTPSSSSFVAGARAIGTCGALPGVSTISNCASDSQAEPNAGNSASDVSSPSQRLYRPPSPYKPPPCVSSPSEAGKLRSSMTSEASAALPASPYEGGTGACAADKENEKDSSSTPGADISCQSDSTAVSFLSPSTTPAGRVAQALGSGVVVVWPPLAERQEMSTRKSAESSRTQSSTTAAALESGNPALLDDSGKQGLQPSPPTSSVSPGVLPSSVGRYTTSAVGSRTQAGCRLPLVGCEKAVVAAEPLRVMPDPFAFPRPPPSGGVTCTNHSLLSTSDELPTSCDVSAAMASSAAERQCNELLRALLDKEQQLALIAEERTKYKRLYEATQS,not soluble
8,MAISLQKGQRISLSKEAPGLSKMMCGLGWDVAKRSGGGFFSNFGGGGQNYDLDASVICLDANGKLTAKENIIYFGNLQHLSGAITHTGDNLTGAGDGDDEVIIVDLPRIPAQIVKLVFVVNIYDCIARKQDFSQIENAFVRLVNAANNKELARYNLSGKEYLGMTGMVLAEVYRHNDDWKLAAIGNGVNVNGLGELAGSYS,not soluble
9,SQSPNPNNPAEYCSTIPPLQQAQASGALSSPPPTVMVPVGV,soluble
10,MAHHHHHHMAGSIRYFIDPRGALSPCAPAESSTPRAGGTKVPRTAEAKSSPNSPPELSSAVPLDGLCRAYEAADGRSGSAFLQVYSVGAHGLLSPEAKAVITGCTMAALRSRLSHLLGLLPHERLNGADSALGMSAVAVLNRYCRATAALPPPSPSAMQPRCGTDTDGGGMRGRGWVVTWALELVLCVAASRIVAGPPLATACPPLCVSDCGDVIMASLHFGLGVRLQRDAVAHHDERTIASSTPLTSAAERCPRYAALSVQLTECTPASSHPLDVRCAVDVTRVIYVNHIRSAQAHAEDGTDAFQRLARCEGGVSDPLSVATARDAWAEALQSYQASAIASQGGVLFVLTHDLSVQSGPAALLPLTVREERSRSHAAEMSHDVAFPPALRDHVLASVRVRSAPVYFNHILLCQAWSSDDVVAEAHARHWAEKLANDGALAPARVAVEWRASLLVSRAKGGAAVTSDAGGSQTLAPTPLQWVLYTARRQLVVAVANRSQVVLTGRRRGLDRTAAEATTKAAQFSPSALRALAEQCVKALPVARGLLGWHCPWPVPSCLQNTDTCTAIPSAAAVEEVLWTLRMLGKLRWRAAQLYEAAGDSAEQHRQLRALRADVQRWSSRRRARTLAADGTTLACEATAWTPTVEDVVCHVDDGDWGALTKELSSMLPPA,not soluble
11,MAQSSAQLLFDESGQPFIVMREQENQKRITGVEAVKSHILAARAVANTLRTSLGPRGLDKMLVSPDGDVTITNDGATIMEKMDVQHHVAKLMVELSKSQDHEIGDGTTGVVVLAGALLEEAEKLIDRGIHPIKIADGFDLACKKALETLDSISDKFPVENRERLVETAQTSLGSKIVNRSLRQFAEIAVDAVLSVADIESKDVNFEMIKMEGKVGGRLEDTILVKGIVIDKTMSHPQMPKELKNAKVAILTCPFEPPKPKTKHKLDITSTEDFKALRDYERETFETMIRQVKESGATLAICQWGFDDEANHLLQANDLPAVRWVGGPEIELLAIATNARIVPRFSELSKEKLGTAGLVREITFGAAKDRMLSIEQCPNNKAVTIFVRGGNKMIIDEAKRALHDALCVIRNLVRDSRIVYGGGSAELAAAIQVAKEADRIDGIEQYAFRAFADALESIPMALAENSGLAPIDALSDLKAKQIETGKSSLGIDAVFAGTNDMKEQKVIETLLSKREQISLATQVVRMILKIDDVRVPDDERMGY,not soluble
12,MTNTTMQPNRLRIALQKKGRLSQDCAILLKQCGVKINWNEQRLIAYAENLPIEILRVRDDDIPGLIFDGVVDLGIIGENVLEEEELGRRAANETVTYKKLRQLDFGDCRLSLAVDRDCHYENVKDLANRRIATSYPHLLKRYMNENGVSFKSCLLNGSVEVAPSAGIAYAICDLVSSGATLEANGLKEVDVIYRSKACLIQRAEPLESTKQALVDKLLTRIQGVQQAAESKYIMLHAPKEKLEKITALLPGVENPTILPLASDTTRVAMHVVSQENLFWETMEQLKEAGASSILVLPIEKMMELEHHHHHH,soluble
13,MSLDFLSQCTSGGCGAKIESRVLNQLLQHLPETPANERLLVGFEHADDAAVYQITSEKALISTVDFFSPMVNDPLSFGKIAVANALSDVYAMGGTVLYALNLVCFPQKMSKEWLEQMLLGGSLKLKEAGALLAGGHSIYDHEPKYGLAVTGEVHPENLWHNNTPQVGDVLILTKALGVGIIQAAVRGQLAKQTEQKIAQDSMERLNKYAAANARSYAVHACTDVTGFGLLIHAKEMADNQVTLLIDTEALPTITGALAYAAECLVTAAGQRNRQTIGTTIDYSKISMEMQELLFDPQTSGGLLISVAADEAAACLAAIQKEDPVAKIIGEVLPKEQQAVVLLEGHHHHHH,not soluble
14,MFKHDCQFEDLRIIAQRVNPLDPTWNEWTLVACQKCKMLKEWQHHSEEQMHGGDLHITALPTHDYLHHIYGIVESDVDLILTHQKKARRYNRYTNAVEEHDV,not soluble
15,MVARDTTAPQVKIVNPVTGNVSGSNVPISVNASDDSGASGITYALYIDGVLKATGKGSTLGYNWNIRNVAAGAHTVQVVAKDAAGNSASSSVSVTVVKLEHHHHHH,not soluble
16,MAGDPMMKKDKDTNDQKSESHMKHNDESKVPEDMTSTNEGEFKVGDKVTITAGHMPGMKGAEATVKGAYKTYAYVVSYKPTNGNEKVNNHKWVVNEEIKDAPKDGFSKDDTVKLEANHMSGMKGATANIDNVKKTTVYVVDYKSKDNGKIIKNHKWMTGNELKARLEHHHHHH,soluble
17,MDDLVKSSQKALENQVLRDQVSSYEREIMLQNENMEALRSFRHDMKRHFAEISVLASTGEIEQIKNYVSAMENNLVESRRLVDSGNTALDTVLNYMLQRAVDKKIQLNVKVVVPSDLKLSAYDMNIIFGNLLENAIEAQKDVKNPSIDLEINYLMDSLVVEISNRCLQKVIFKGGLPITTKQSVREHGYGLKNVKKVLDKYISTLDFECSDERFTVKILMKI,not soluble
18,MLSLDQIPHHIRHGIVGSRLIQIRGRVTQVTGTLLKAVVPGVRIGELCYLRNPDNSLSLQAEVIGFAQHQALLIPLGEMYGISSNTEVSPTGTMHQVGVGEHLLGQVLDGLGQPFDGGHLPEPAAWYPVYQDAPAPMSRKLITTPLSLGIRVIDGLLTCGEGQRMGIFAAAGGGKSTLLASLIRSAEVDVTVLALIGERGREVREFIESDLGEEGLRKAVLVVATSDRPSMERAKAGFVATSIAEYFRDQGKRVLLLMDSVTRFARAQREIGLAAGEPPTRRGYPPSVFAALPRLMERAGQSSKGSITALYTVLVEGDDMTEPVADETRSILDGHIILSRKLAAANHYPAIDVLRSASRVMNQIVSKEHKTWAGDLRRLLAKYEEVELLLQIGEYQKGQDKEADQAIERMGAIRGWLCQGTHELSHFNETLNLLETLTQ,not soluble
19,MGSDKIHHHHHHMAVVCRRITASSRTYSLSALTRCLQEEAAAIAVAAERLSSSQVEKALVLLERCSDQRAKLVITGVGKSGIVARKIAATFSSIGLMALYLNPLDAMHGDLGVVAQEDVCLLLSNSGETAELLEVLPHLKRRGTARIALVGKPDSSLARGSDVVLEASVDREVCPLNLAPTASTAVAMAIGDALAAIWMERRNISPADFAFNHPAGSLGKQLTLTASDLMVPVEKVQPLQPNTSLQEVICKLTQDGIGSGWVEDPSTAGLLLGLITDGDLRRALRDHSAENWASLSAAELMTADPITVDADLLAVEAIKQMECNRRKPISVLPVVGPDSSGNLLLGLLRLHDLIQAGLT,not soluble

# Source: the DeepSol protein solubility set
